Measurements taken from patent US20060292689A1.

Biological target: CCR-2 (human) (UniProt P41597)
Assay: cell-based or functional assay

Sequence of CCR-2 (human) (P41597 whole entry): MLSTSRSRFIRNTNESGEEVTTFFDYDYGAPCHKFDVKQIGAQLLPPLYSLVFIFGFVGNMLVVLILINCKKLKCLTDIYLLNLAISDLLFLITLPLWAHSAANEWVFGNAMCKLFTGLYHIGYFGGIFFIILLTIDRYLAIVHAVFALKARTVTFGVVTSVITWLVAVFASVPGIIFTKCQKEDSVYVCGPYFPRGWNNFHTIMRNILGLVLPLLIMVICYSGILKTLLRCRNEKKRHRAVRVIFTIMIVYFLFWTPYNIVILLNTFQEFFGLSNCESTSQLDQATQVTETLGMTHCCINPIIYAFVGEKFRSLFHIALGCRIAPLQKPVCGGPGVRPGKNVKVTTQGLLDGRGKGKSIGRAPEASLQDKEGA

- mean fluorescence intensity of CaR expression on monocytes: 673 units
Substance: MCP-1 (from UniProt P13500 24-99) (ligand)
